The assay addresses neutral lactase (GODO-YNL2; unfragmented high molecular fraction F-1, about 120 kDa) (yeast, Kluyveromyces genus) (UniProt P00723). The experiment in a line: cell-based or functional assay.

neutral lactase (GODO-YNL2; unfragmented high molecular fraction F-1, about 120 kDa) (yeast, Kluyveromyces genus), sequence (P00723 whole entry, the tested form may be a part): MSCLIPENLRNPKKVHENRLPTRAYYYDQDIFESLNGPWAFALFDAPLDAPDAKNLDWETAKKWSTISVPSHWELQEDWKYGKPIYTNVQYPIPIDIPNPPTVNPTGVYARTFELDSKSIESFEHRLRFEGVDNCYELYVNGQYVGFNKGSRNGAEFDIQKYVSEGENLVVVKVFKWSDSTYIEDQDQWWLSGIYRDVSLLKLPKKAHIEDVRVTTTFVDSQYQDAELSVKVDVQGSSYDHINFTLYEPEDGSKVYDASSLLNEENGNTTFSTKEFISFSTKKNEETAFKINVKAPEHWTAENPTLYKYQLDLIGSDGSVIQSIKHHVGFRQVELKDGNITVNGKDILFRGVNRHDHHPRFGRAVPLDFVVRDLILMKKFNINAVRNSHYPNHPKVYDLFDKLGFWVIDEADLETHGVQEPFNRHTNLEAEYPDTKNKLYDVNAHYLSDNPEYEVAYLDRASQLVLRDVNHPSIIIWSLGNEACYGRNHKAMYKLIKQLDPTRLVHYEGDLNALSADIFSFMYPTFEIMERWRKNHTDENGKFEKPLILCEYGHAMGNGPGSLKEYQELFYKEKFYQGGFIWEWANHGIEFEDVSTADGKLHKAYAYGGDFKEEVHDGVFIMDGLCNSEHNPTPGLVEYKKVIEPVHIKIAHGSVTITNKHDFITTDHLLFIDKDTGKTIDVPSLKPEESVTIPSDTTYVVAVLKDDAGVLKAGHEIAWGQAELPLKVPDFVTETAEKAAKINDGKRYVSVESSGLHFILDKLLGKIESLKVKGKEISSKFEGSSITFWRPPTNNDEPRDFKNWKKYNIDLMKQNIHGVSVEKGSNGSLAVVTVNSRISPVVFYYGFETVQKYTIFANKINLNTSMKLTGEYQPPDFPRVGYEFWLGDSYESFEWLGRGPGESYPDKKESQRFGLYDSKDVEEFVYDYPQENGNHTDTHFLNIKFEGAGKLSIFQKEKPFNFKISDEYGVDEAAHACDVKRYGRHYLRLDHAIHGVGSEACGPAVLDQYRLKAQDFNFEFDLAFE

In turn, “proteinase B derived from Kluyveromyces lactis (mature enzyme)” yielded an amount of PrB not causing fragmentation of lactase (30° C., 20 hours, SDS-PAGE) of 0.26 ng per NLU.

Source of the values: patent publication US20190075806A1, “PROTEINASE B AND LACTASE SOLUTION USING ITS PROPERTIES AND METHOD FOR PRODUCING THE SAME” (GODO SHUSEI CO., LTD., priority 2016, published 2019).
